Measured values from patent publication US6867179B1, “Methods of inducing hair growth and coloration” (Trustees of Boston University, priority 1994, dated 2005).

Columns and labels:
p75^NTR = biological target: T1, p75^NTR (Homo sapiens, UniProt P08138); experiment: Competition for 125I beta-amyloid 1-40 binding to p75NTR-NIH 3T3 cells; design: expressed in transfected cells; host or cells: NIH 3T3 fibroblasts (p75^NTR NIH 3T3 cells, Dobrowsky et al. 1994)
T1 sequence (P08138 29-427): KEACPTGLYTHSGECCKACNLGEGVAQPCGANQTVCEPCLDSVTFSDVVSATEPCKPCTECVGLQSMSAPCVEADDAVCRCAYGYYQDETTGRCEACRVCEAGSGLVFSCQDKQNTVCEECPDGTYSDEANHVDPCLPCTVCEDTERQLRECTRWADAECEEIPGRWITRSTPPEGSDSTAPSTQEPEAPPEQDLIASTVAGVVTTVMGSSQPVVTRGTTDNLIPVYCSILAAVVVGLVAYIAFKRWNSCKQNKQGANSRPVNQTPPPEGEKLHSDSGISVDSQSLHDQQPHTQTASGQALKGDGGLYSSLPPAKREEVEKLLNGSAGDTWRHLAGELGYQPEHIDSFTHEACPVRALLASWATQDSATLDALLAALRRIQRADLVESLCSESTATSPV
Method: p75^NTR-NIH 3T3 cells were maintain in DMEM supplemented with 10% FBS in the presence of penicillin (45 ng/ml), streptomycin (68 ng/ml), and hygromycin B (17.5 ng/ml). […] After incubation, 1 mM of disuccinimidyl suberate was added for 30 minutes. Following centrifugation cells were lysed with RIPA buffer (50 mM Tris HCl, pH 8.0, […] NaCl 0.5% sodium deoxycholate 4, 5 mM MgCl2, 1% Triton x-100, 1 mM phenylmethylsulfonylfluoride [PMSF], and 1 microg/ml aprotinin), sonicated for 1-3 seconds and immunoprecipitated with anti p75^NTR antibodies (mouse monoclonal IgG1, Cedarlane Laboratories Ltd., Ontario, Canada) or mouse IgG as control for 16 hours at […] in the presence of 15 microl of protein G plus protein A agarose and 1M NaCl adjusted to pH 8.0. After several washes with 20 mM Tris HCl, pH 8.0, 1M NaCl, 5 mM MgCl2, 0.2% Triton X-100 and 1 mM PMSF, immunoprecipitates were separated over 8% PAGE and subjected to autoradiography. A band of 75-80 kD molecular weight was present only in lysates inmmunoprecipitated with anti p75^NTR antibodies and not lysates inmmunoprecipitated with irrelevant mouse IgG.
p75^NTR-NIH 3T3 cells were incubated for 2 hours at […] in binding medium (DMEM, 10 mM hepes, 0.1 mg/ml cytochrome C, 0.01% Tween 80, 1 mg/ml BSA) with ^125I beta-amyloid 1-40 and increasing concentrations of NGF (0-100 ng/ml). […]

melanocytes = experiment: Apoptosis (propidium iodide-positive nuclei) in UV-irradiated melanocytes; assay type: cell-based, human; conditions: UV 10 mJ/cm^2, 50 ng/ml NGF, 24 hours after irradiation; diluent about 30%
Method: To determine if melanocyte apoptosis is mediated by p75 NGF-R, cultures were treated as above, and then incubated in the presence of a blocking anti-human p75 NGF-R monoclonal antibody believed to act as a pseudo-ligand for the p75 NGF-R. (Anti-human p75 NGF-R monoclonal antibody courtesy of Moses V. Chao, Cornell University Medical Center, New York, N.Y.; Ross, et al., Proc. Natl. Acad. Sci. 81:6681 (1984)).
Melanocytes were cultured on 8 chamber tissue culture slides (Nunc Inc., Naperville, Ill.) and were UV irradiated with 10 mJ/cm^2 as above. Four microM of propidium iodide (PI) was added to melanocyte cultures 24 hours after irradiation, for 5 minutes at […]. Cultures were washed with PBS and nuclei were analyzed using a Leitz confocal laser microscope (Leica, Deerfield, Ill.).
Melanocytes were sham or UV irradiated with 10 mJ/cm^2 and 25 mJ/cm^2. Twenty-four hours after irradiation, […] of propidium iodide was added to cultures as above and cells were viewed with fluorescent phase contrast Nikon microscope. The number of fragmented or homogeneously stained nuclei versus nonstained nuclei was determined in several representative fields and expressed as a percent of total cells. A minimum of 130 cells were counted for each condition.
Melanocytes were irradiated with 10 mJ/cm^2 or were sham irradiated as in Example 1 and then provided 50 ng/ml NGF or diluent alone. […]

Bcl-2 protein = experiment: Keratinocyte BCL-2 level after NGF deprivation (Western blot); assay type: cell-based, human; conditions: medium lacking BPE, 50 ng/ml NGF versus diluent, 24 and 48 hours
Method: To determine if NGF affects BCL-2 protein level in keratinocytes, cells were maintained in Keratinocyte basal medium until 60-80% confluent. Then cells were provided medium lacking BPE to eliminate exogenous NGF. Duplicate cultures were provided 50 ng/ml NGF or diluent alone.
Total keratinocyte proteins were extracted, and BCL-2 levels were determined by Western blot analysis as in Example 6.

What does the source list for “NGF: nerve growth factor, neurotrophin ligand of p75 NGF-R and trk”?
Competition with beta-amyloid for p75NTR binding (p75^NTR): could be competed off by NGF; Maximum inhibition of 125I beta-amyloid binding (p75^NTR; NGF 100 ng/ml, 2 hours): 38%; Nuclei showing fragmentation (propidium iodide positive) (melanocytes): 12%; BCL-2 level in keratinocytes (Bcl-2 protein): contributes, at least in part, to BCL-2 maintenance
